Test results taken from patent publication US20170101470A1 (PROTHENA BIOSCIENCES, published 2017).

Experiments:
[1] = target: T1, human MCAM domain 1 hFc construct (human, UniProt P43121 19-129); test: ForteBio Octet Red, MCAMhFc domains on anti-human IgG Fc sensors
T1 construct: One of the 'various MCAMhFc domains' loaded on the ForteBio sensors; also called MCAMhFc domain 1
T1 sequence: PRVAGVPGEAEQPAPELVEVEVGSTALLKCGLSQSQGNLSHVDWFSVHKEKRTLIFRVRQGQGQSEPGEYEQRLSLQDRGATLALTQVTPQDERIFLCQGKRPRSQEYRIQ
From the text: The following protocol was used: ForteBio anti-human IgG Fc biosensors were used to immobilize various MCAMhFc domains including full length MCAMhFc protein on to biosensor surface. […] After loading these samples into a black 96 well plate, the Octet Red was programmed as follows: 60 seconds for baseline #1; 180 seconds for loading various domains; 60 seconds for baseline #2; 180 seconds for association of antibody to domain; and 240 seconds for dissociation of antibody from domain.
Reagents and Supplies Used: [0358] 1. MCAMhFc final concentration @ 5 ug/ml [0359] […] 3. ForteBio anti-human IgG Fc Capture (AHC) biosensors for kinetics experiments, cat#18-5060 [0361] 4. Block 96 well plate from Greiner Bio-one, cat#655209 [0362] 5. ForteBio Octet Red machine [0363] 6. Fresh tissue culture medium, DMEM with 20% FCS, was used as buffer for dilution

[2] = target: T2, human MCAM S206A mutant clone on BHK-S cells (human) (UniProt P43121); test: shotgun mutagenesis, immunodetection on BHK-S cells, 0.25 ug/mL, background-subtracted and normalised to WT, triplicate
T2 sequence: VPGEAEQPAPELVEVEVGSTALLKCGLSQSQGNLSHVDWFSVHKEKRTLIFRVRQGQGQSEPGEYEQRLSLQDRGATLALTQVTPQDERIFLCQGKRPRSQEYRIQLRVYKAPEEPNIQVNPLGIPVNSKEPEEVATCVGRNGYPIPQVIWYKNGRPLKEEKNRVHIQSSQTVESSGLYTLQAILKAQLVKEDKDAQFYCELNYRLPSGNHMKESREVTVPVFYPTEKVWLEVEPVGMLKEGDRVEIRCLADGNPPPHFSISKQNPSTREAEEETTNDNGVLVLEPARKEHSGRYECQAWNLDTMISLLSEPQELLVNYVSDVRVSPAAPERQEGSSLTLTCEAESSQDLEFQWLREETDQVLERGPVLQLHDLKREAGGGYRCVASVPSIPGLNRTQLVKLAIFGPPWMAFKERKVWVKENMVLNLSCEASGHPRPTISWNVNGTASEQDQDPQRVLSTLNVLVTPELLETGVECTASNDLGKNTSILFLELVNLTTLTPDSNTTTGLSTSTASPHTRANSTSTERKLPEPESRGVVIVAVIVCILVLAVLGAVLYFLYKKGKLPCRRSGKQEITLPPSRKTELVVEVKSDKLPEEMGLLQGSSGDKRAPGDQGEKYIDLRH

[3] = target: T3, human MCAM P145A mutant clone on BHK-S cells (human) (UniProt P43121); test: as above
T3 sequence: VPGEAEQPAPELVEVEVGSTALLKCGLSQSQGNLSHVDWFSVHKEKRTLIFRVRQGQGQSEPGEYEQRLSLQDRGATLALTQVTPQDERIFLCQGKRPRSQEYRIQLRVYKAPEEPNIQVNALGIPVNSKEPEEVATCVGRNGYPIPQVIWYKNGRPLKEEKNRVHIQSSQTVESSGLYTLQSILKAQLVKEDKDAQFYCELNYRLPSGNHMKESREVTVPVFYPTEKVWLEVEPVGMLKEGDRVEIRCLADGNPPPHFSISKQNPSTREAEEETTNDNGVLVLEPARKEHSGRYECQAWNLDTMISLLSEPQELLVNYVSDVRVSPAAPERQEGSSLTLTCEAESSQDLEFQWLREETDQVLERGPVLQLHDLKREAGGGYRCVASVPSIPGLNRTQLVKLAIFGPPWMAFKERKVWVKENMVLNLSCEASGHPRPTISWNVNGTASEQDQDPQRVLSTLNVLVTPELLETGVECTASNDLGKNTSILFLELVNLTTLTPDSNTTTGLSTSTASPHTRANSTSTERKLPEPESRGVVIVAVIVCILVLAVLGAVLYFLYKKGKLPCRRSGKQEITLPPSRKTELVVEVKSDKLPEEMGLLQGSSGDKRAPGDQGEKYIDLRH

[4] = target: T4, human MCAM V241A mutant clone on BHK-S cells (human) (UniProt P43121); test: as above
T4 sequence: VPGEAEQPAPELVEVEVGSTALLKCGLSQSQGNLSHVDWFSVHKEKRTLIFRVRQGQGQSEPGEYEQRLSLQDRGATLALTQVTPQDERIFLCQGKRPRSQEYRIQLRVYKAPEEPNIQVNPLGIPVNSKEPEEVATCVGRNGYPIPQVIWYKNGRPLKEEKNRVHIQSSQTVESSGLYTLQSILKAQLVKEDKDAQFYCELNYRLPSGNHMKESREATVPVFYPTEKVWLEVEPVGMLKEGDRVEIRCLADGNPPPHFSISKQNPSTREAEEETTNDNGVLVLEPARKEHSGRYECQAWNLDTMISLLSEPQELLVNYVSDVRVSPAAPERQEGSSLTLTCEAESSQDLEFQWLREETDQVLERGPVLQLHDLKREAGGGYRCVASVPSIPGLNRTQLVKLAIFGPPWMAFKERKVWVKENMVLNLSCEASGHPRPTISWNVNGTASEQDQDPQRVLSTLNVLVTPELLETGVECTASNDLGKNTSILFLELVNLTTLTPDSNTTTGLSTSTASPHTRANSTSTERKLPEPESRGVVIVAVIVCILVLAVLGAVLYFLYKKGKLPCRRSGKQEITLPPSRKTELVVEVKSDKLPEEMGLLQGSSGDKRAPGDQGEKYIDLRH

B1: rat anti-human MCAM monoclonal antibody clone 2120.4.19 (antibody, V domains shown)
VH: QVQLKESGPGLVQPSQTLSLTCTVSGFSLTSNGVSWVRQPPGKGLEWIAAISSGGTTYYNSAFKSRLSISRNTSKSQVLLKMNSLQTEDTAMYFCARRYGYGWYFDFWGPGTMVTVSS
VL: DIRMTQSPSLLSASVGDRVTLNCKASQNIYNSLAWYQQKLGEGPKVLIPNANSLQTGIPSRFSGSGSGTDFTLTISSLQPEDFATYFCQQFYSGYTFGAGTKLELK
notes: also called m2120
In the case of B1, the binding result [1] is reported as “no binding (tested: 5 ug/ml)”, the mean reactivity (% of wild type MCAM) [2] is reported as 17.9 % WT and the mean reactivity (% of wild type MCAM) [3] is reported as 26.3 % WT. It also gave a mean reactivity (% of wild type MCAM) [4] of 24.4 % WT.
